Test results published in ChEMBL document CHEMBL1157388, “Recent developments in fragment-based drug discovery” (J Med Chem, 2008).

Assays:
[1] = substrate: O=P(O)(O)Oc1ccc(-c2ccccc2)cc1
[2] = substrate: O=[N+]([O-])c1ccc(OP(=O)(O)O)cc1

B1: Receptor-type tyrosine-protein phosphatase beta (Homo sapiens), P23467 (protein)
chain: MLSHGAGLALWITLSLLQTGLAEPERCNFTLAESKASSHSVSIQWRILGSPCNFSLIYSSDTLGAALCPTFRIDNTTYGCNLQDLQAGTIYNFRIISLDEERTVVLQTDPLPPARFGVSKEKTTSTSLHVWWTPSSGKVTSYEVQLFDENNQKIQGVQIQESTSWNEYTFFNLTAGSKYNIAITAVSGGKRSFSVYTNGSTVPSPVKDIGISTKANSLLISWSHGSGNVERYRLMLMDKGILVHGGVVDKHATSYAFHGLTPGYLYNLTVMTEAAGLQNYRWKLVRTAPMEVSNLKVTNDGSLTSLKVKWQRPPGNVDSYNITLSHKGTIKESRVLAPWITETHFKELVPGRLYQVTVSCVSGELSAQKMAVGRTFPDKVANLEANNNGRMRSLVVSWSPPAGDWEQYRILLFNDSVVLLNITVGKEETQYVMDDTGLVPGRQYEVEVIVESGNLKNSERCQGRTVPLAVLQLRVKHANETSLSIMWQTPVAEWEKYIISLADRDLLLIHKSLSKDAKEFTFTDLVPGRKYMATVTSISGDLKNSSSVKGRTVPAQVTDLHVANQGMTSSLFTNWTQAQGDVEFYQVLLIHENVVIKNESISSETSRYSFHSLKSGSLYSVVVTTVSGGISSRQVVVEGRTVPSSVSGVTVNNSGRNDYLSVSWLLAPGDVDNYEVTLSHDGKVVQSLVIAKSVRECSFSSLTPGRLYTVTITTRSGKYENHSFSQERTVPDKVQGVSVSNSARSDYLRVSWVHATGDFDHYEVTIKNKNNFIQTKSIPKSENECVFVQLVPGRLYSVTVTTKSGQYEANEQGNGRTIPEPVKDLTLRNRSTEDLHVTWSGANGDVDQYEIQLLFNDMKVFPPFHLVNTATEYRFTSLTPGRQYKILVLTISGDVQQSAFIEGFTVPSAVKNIHISPNGATDSLTVNWTPGGGDVDSYTVSAFRHSQKVDSQTIPKHVFEHTFHRLEAGEQYQIMIASVSGSLKNQINVVGRTVPASVQGVIADNAYSSYSLIVSWQKAAGVAERYDILLLTENGILLRNTSEPATTKQHKFEDLTPGKKYKIQILTVSGGLFSKEAQTEGRTVPAAVTDLRITENSTRHLSFRWTASEGELSWYNIFLYNPDGNLQERAQVDPLVQSFSFQNLLQGRMYKMVIVTHSGELSNESFIFGRTVPASVSHLRGSNRNTTDSLWFNWSPASGDFDFYELILYNPNGTKKENWKDKDLTEWRFQGLVPGRKYVLWVVTHSGDLSNKVTAESRTAPSPPSLMSFADIANTSLAITWKGPPDWTDYNDFELQWLPRDALTVFNPYNNRKSEGRIVYGLRPGRSYQFNVKTVSGDSWKTYSKPIFGSVRTKPDKIQNLHCRPQNSTAIACSWIPPDSDFDGYSIECRKMDTQEVEFSRKLEKEKSLLNIMMLVPHKRYLVSIKVQSAGMTSEVVEDSTITMIDRPPPPPPHIRVNEKDVLISKSSINFTVNCSWFSDTNGAVKYFTVVVREADGSDELKPEQQHPLPSYLEYRHNASIRVYQTNYFASKCAENPNSNSKSFNIKLGAEMESLGGKCDPTQQKFCDGPLKPHTAYRISIRAFTQLFDEDLKEFTKPLYSDTFFSLPITTESEPLFGAIEGVSAGLFLIGMLVAVVALLICRQKVSHGRERPSARLSIRRDRPLSVHLNLGQKGNRKTSCPIKINQFEGHFMKLQADSNYLLSKEYEELKDVGRNQSCDIALLPENRGKNRYNNILPYDATRVKLSNVDDDPCSDYINASYIPGNNFRREYIVTQGPLPGTKDDFWKMVWEQNVHNIVMVTQCVEKGRVKCDHYWPADQDSLYYGDLILQMLSESVLPEWTIREFKICGEEQLDAHRLIRHFHYTVWPDHGVPETTQSLIQFVRTVRDYINRSPGAGPTVVHCSAGVGRTGTFIALDRILQQLDSKDSVDIYGAVHDLRLHRVHMVQTECQYVYLHQCVRDVLRARKLRSEQENPLFPIYENVNPEYHRDPVYSRH
Q: Which results are given for B1?
A: Km [1]: 86 µM; Km [2]: 1340 µM
